Laboratory results from doi:10.1101/2025.01.22.634249.

Molecular target: TMHC2, designed transmembrane (TM) homodimer, monomeric construct with N-terminal SpyTag and SnoopTag (wild type)
Assay: single-molecule magnetic tweezers

- increase of partial TMHC2 dimerization up to the I1 state with peptide II: 41%
- percent of traces with only partial TMHC2 dimerization with 10 μM peptide: 62%
- probability of complete TMHC2 dimerization with 10 μM peptide: 38%
B1: peptide II (13-aa peptide …) (peptide)
peptide: TRTEIIRELERSL
